Test results as given in PMC8466755, “GPCR Pharmacological Profiling of Aaptamine from the Philippine Sponge Stylissa sp. Extends Its Therapeutic Potential for Noncommunicable Diseases” (Molecules, 2021).
One block for each compound: values may come before it.

Experiments:
[1] = target: delta opioid receptor (δ-OR, OPRD1); parameters: method as in PMID 27744679; conditions: calcium mobilization pathway; read-out: EC50 agonist, delta opioid receptor; cited from earlier work
CCR3 = target: T1, CCR3 (Homo sapiens, UniProt P51677); test: PathHunter β-arrestin assay, positive allosteric modulation (PAM) mode; type: cell-based; conditions: control agonist; read-out: EC50 of positive control ligand
T1 sequence (P51677 1-355): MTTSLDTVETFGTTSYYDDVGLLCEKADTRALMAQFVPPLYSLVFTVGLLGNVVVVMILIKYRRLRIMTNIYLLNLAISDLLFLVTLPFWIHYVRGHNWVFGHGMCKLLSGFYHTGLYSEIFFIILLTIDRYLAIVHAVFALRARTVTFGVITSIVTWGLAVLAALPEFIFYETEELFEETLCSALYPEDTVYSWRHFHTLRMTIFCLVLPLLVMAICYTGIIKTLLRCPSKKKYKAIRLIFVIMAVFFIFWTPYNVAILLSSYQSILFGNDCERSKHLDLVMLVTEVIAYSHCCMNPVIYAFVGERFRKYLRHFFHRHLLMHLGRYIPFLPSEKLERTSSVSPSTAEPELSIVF
Protocol: (§1) Hit validation was performed by subjecting the aaptamine to an agonist, antagonist, and positive allosteric modulation (PAM) secondary screen utilizing thirteen GPCR biosensor assays (Arrestin) against the following targets: ADRA2A, ADRA2C, ADRB2, CCR1, CCR3, CXCR3, CXCR7, DRD2L, DRD2S, DRD4, HTR1E, OPRK1, and SSTR1. The assays were performed at 10-point concentrations using three-fold serial dilutions in duplicate. For all the assay formats, the final assay vehicle concentration was 1%.
(§2) For PAM assays, the cells were preincubated with the sample followed by agonist induction at the EC20 concentration. To the cells, 5 µL of 5X sample was added and incubated for 30 min at 37 °C or room temperature. Following the incubation period, 5 µL of the 6X EC20 agonist prepared in an assay buffer was added to the cells and incubated for 90 or 180 min at 37 °C or room temperature. The percent activity of aaptamine was calculated following this formula: % modulation = 100% × ((mean RLU of test sample − mean RLU of EC20 control)/(mean RLU of MAX control ligand − mean RLU of EC20 control)).

CCR1 = target: T2, CCR1 (Homo sapiens, UniProt P32246); test: PathHunter β-arrestin assay, agonist mode; type: cell-based; conditions: dose-response, agonist mode
T2 sequence (P32246 1-355): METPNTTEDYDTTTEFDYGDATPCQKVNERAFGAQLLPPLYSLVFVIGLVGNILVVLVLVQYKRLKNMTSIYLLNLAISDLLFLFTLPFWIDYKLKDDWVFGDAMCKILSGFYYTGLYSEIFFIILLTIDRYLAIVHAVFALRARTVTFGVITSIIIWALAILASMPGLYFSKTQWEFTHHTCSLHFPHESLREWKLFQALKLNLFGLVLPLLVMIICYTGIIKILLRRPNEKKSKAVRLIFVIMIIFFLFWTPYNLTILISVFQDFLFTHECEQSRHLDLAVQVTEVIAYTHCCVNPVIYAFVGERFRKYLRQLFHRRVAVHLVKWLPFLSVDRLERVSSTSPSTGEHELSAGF
Protocol: Aaptamine (20 µM) was profiled in gpcrMAX panel biosensor assays (in agonist and antagonist modes) against a panel of 168 GPCRs. The assay was performed by DiscoverX Corporation (Fremont, CA) using PathHunter β -arrestin enzyme fragment complementation (EFC) technology, in a similar way to that described elsewhere. The PathHunter cell lines were taken from freezer stocks according to standard procedures. A total of 20 µL of cells were seeded into white 384-well plates and incubated at 37 °C for the appropriate time prior to testing.
For agonist determination, aaptamine was incubated with PathHunter cell lines to induce a response. To increase the concentration, intermediate dilution from 20 µM of aaptamine was performed to generate a 5X sample in an assay buffer. Then, 5 µL of 5X sample was added to the plate with PathHunter cells and incubated for 90 or 180 min at 37 °C or room temperature. The percentage activity of aaptamine was calculated following this formula: % activity = 100% × (mean RLU of test sample − mean RLU of vehicle control)/(mean MAX control ligand − mean RLU of vehicle control).
as §1

CXCR3 = target: T3, CXCR3 (Homo sapiens, UniProt P49682); test: PathHunter β-arrestin assay, positive allosteric modulation (PAM) mode; type: cell-based; conditions: control agonist; read-out: EC50 of positive control ligand
T3 sequence (P49682 1-368): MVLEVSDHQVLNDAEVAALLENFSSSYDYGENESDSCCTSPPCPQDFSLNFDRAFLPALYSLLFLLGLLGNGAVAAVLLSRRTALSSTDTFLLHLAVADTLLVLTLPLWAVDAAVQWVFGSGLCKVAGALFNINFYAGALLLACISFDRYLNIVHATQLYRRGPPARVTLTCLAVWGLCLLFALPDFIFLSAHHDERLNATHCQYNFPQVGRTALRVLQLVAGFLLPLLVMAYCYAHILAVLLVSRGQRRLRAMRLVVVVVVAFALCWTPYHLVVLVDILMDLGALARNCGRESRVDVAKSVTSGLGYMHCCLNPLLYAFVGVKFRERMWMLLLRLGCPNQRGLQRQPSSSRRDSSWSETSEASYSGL
Protocol: as §1, §2

Compound: COc1cc2ccnc3c2c(c1O)NC=C3 [9-demethyl aaptamine]
EC50 [1]: 4100 nM

Compound: COC1=Cc2ccnc3ccnc(c23)C1=O [demethyl(oxy)-aaptamine]
EC50 [1]: 2300 nM

Second part, the compound after the results:

EC50 (CCR3): 3 nM
Compound: CCL3: ligand used as positive control for CCR3

EC50 (CCR1): 26 nM
Compound: CCL13: ligand used as positive control for CCR1

EC50 (CXCR3): 6.7 nM
Compound: CXCL11: ligand used as positive control for CXCR3
